Starred links: 1 amine or outer side, 2 acyl side, 3 side chain; linkers in the order of their positions; H or OH if unused. Positions of bridges follow the written chain, without caps; N, C: chain ends. Non-standard residues stand in square brackets, D forms with d. Groups on a side chain read outwards from the residue. Primed or numbered codes have the meaning given here. *: point of attachment. PyrS2″ = (S)-3-amino-1-((pent-4-en-1-yloxy)carbonyl)pyrrolidine-3-carboxylic acid (stapling residue), C=CCCCOC(=O)N1CC[C@@](N[*:1])(C(=O)[*:2])C1; B5(4) = 2,2-bis(4-pentenyl)glycine = 2-amino-2-(pent-4-en-1-yl)hept-6-enoic acid (stitching residue), C=CCCCC(CCCC=C)(N[*:1])C(=O)[*:2]; B5(5) = 2,2-bis(4-pentenyl)glycine, 2-amino-2-(pent-4-en-1-yl)hept-6-enoic acid (stitching residue), C=CCCCC(CCCC=C)(N[*:1])C(=O)[*:2]; PyrS2 = (S)-3-amino-1-((pent-4-en-1-yloxy)carbonyl)pyrrolidine-3-carboxylic acid, C=CCCCOC(=O)N1CC[C@@](N[*:1])(C(=O)[*:2])C1; B5(27) = 2-amino-2-(pent-4-en-1-yl)hept-6-enoic acid (two alkene side-chain arms), C=CCCCC(CCCC=C)(N[*:1])C(=O)[*:2]; MePpzAsn = (S)-2-amino-4-(4-methylpiperazin-1-yl)-4-oxobutanoic acid, CN1CCN(C(=O)C[C@H](N[*:1])C(=O)[*:2])CC1; F2PipNva = (S)-2-amino-5-(4,4-difluoropiperidin-1-yl)pentanoic acid, O=C([C@H](CCCN1CCC(F)(F)CC1)N[*:1])[*:2]; F2PipAbu = (S)-2-amino-4-(4,4-difluoropiperidin-1-yl)butanoic acid, O=C([C@H](CCN1CCC(F)(F)CC1)N[*:1])[*:2]; MePpzNva = (S)-2-amino-5-(4-methylpiperazin-1-yl)pentanoic acid, CN1CCN(CCC[C@H](N[*:1])C(=O)[*:2])CC1; MePpzAbu = (S)-2-amino-4-(4-methylpiperazin-1-yl)butanoic acid, CN1CCN(CC[C@H](N[*:1])C(=O)[*:2])CC1; 4TriA = (S)-2-amino-3-(1H-1,2,3-triazol-4-yl)propanoic acid, O=C([C@H](Cc1c[nH]nn1)N[*:1])[*:2]; Lithocholoyl = C[C@H](CCC(=O)*)[C@H]1CC[C@H]2[C@@H]3CC[C@@H]4C[C@H](O)CC[C@]4(C)[C@H]3CC[C@]12C; MorphAsn = (S)-2-amino-4-morpholino-4-oxobutanoic acid, O=C(C[C@H](N[*:1])C(=O)[*:2])N1CCOCC1; B5(3) = 2,2-bis(4-pentenyl)glycine (stitching residue), C=CCCCC(CCCC=C)(N[*:1])C(=O)[*:2]; Me3AdamantC = 3,5,7-trimethyladamantane-1-carbonyl, CC12CC3(C)CC(C)(C1)CC(C(=O)*)(C2)C3; MorphAbu = (S)-2-amino-4-morpholinobutanoic acid, O=C([C@H](CCN1CCOCC1)N[*:1])[*:2]; Phe(4-(3-Py)) = N[C@@H](Cc1ccc(-c2cccnc2)cc1)C(=O)O; Nva(5-morpholino) = N[C@@H](CCCN1CCOCC1)C(=O)O; Bta = N[C@@H](Cc1csc2ccccc12)C(=O)O; αAllylPro = C=CC[C@@]1(C(=O)O)CCCN1; tBuAla = CC(C)(C)C[C@H](N)C(=O)O; 3Thi = N[C@@H](Cc1ccsc1)C(=O)O; hSer = N[C@@H](CCO)C(=O)O; PEG2′ = not defined here

In general, IC50 refers to the concentration needed to halve the response being measured. Lower therefore signals higher potency.

The target of the test is full-length beta-Catenin (Uniprot ID P35222) (Homo sapiens (Human)) (UniProt P35222). The test can be described thus: fluorescence polarization competition; displacement of 5FAM-TCF4(10-53) from full-length beta-catenin. Background: Fluorescence polarisation rises when a labelled molecule tumbles more slowly, as on binding a larger partner.
As to Ac-[αAllylPro]DF[B5(27)]DDAAFL[PyrS2][3Thi][Bta][hSer]-NH2 (staple 1-4, 4-11) [I-1510: Ac-PL3-Asp-Phe-B5-Asp-Asp-Ala-Ala-Phe-Leu-PyrS2-3Thi-BztA-Hse-NH2], the IC50 amounted to 10 nM.

Ac-[αAllylPro]D[tBuAla][B5(5)]DDAK(Lithocholoyl)FL[PyrS2][3Thi][Bta]Q-NH2 (staple 1-4, 4-11) [I-1473] displayed a half-inhibitory concentration (IC50) of 224 nM.

The molecule Ac-[αAllylPro]D[tBuAla][B5(27)]DDAAFL[PyrS2][3Thi][Bta][4TriA]-NH2 (staple 1-4, 4-11) [I-1498] had an IC50 of 48 nM.

With Ac-[αAllylPro]D[tBuAla][B5(4)]DDAAFL[PyrS2″][3Thi][Bta]QK([PEG2′-Lithocholoyl])-NH2 (staple 1-4, 4-11) [I-1478], the IC50 stood at 75 nM.

With Ac-[αAllylPro]D[tBuAla][B5(27)]DDAAFL[PyrS2][3Thi][Bta]T-NH2 (staple 1-4, 4-11) [I-1494], the IC50 was determined as 5 nM.

Molecule Ac-[αAllylPro]DT[B5(5)]DDAAFL[PyrS2″][3Thi][Bta]Q-NH2 (staple 1-4, 4-11) [I-1515: Ac-PL3-Asp-Thr-B5-Asp-Asp-Ala-Ala-Phe-Leu-PyrS2-3Thi-BztA-Gln-NH2] showed an IC50 of 24 nM.

On to Ac-[αAllylPro]D[tBuAla][B5(3)]DD[MorphAsn]AFL[PyrS2″][3Thi][Bta]Q-NH2 (staple 1-4, 4-11) [I-1483], for which the IC50 was found to be 22 nM.

Molecule Ac-[αAllylPro]D[tBuAla][B5(3)]DDAAF[Nva(5-morpholino)][PyrS2″][3Thi][Bta]Q-NH2 (staple 1-4, 4-11) [I-1485] showed an IC50 of 7 nM.

The molecule Ac-[αAllylPro]D[tBuAla][B5(5)]DDAK(Me3AdamantC)FL[PyrS2″][3Thi][Bta]Q-NH2 (staple 1-4, 4-11) [I-1475] had an IC50 of 113 nM.

In turn, Ac-[αAllylPro]D[tBuAla][B5(3)]DDAAF[MePpzAsn][PyrS2″][3Thi][Bta]Q-NH2 (staple 1-4, 4-11) [I-1488] returned a 50% inhibitory concentration (IC50) of 6 nM.

Consider Ac-[αAllylPro]DY[B5(27)]DDAAFL[PyrS2][3Thi][Bta]Q-NH2 (staple 1-4, 4-11) [I-1511: Ac-PL3-Asp-Tyr-B5-Asp-Asp-Ala-Ala-Phe-Leu-PyrS2-3Thi-BztA-Gln-NH2], for which the IC50 worked out at 5 nM.

In turn, Ac-[αAllylPro]D[tBuAla][B5(5)]DDAAFL[PyrS2″][3Thi][Bta]QK(Lithocholoyl)-NH2 (staple 1-4, 4-11) [I-1477] came in with an IC50 of 148 nM.

As for Ac-[αAllylPro]DT[B5(5)]DDAAFL[PyrS2″][3Thi][Bta][hSer]-NH2 (staple 1-4, 4-11) [I-1516: Ac-PL3-Asp-Thr-B5-Asp-Asp-Ala-Ala-Phe-Leu-PyrS2-3Thi-BztA-Hse-NH2], the IC50 turned out to be 30 nM.

Consider Ac-[αAllylPro]D[tBuAla][B5(3)]DD[F2PipNva]AFL[PyrS2″][3Thi][Bta]Q-NH2 (staple 1-4, 4-11) [I-1482], for which the IC50 was 7 nM.

Ac-[αAllylPro]D[tBuAla][B5(27)]DDAAFL[PyrS2][3Thi][Bta]W-NH2 (staple 1-4, 4-11) [I-1497] returned an IC50 of 50 nM.

The molecule Ac-[αAllylPro]D[tBuAla][B5(4)]DDA[MePpzAsn]FL[PyrS2][3Thi][Bta]Q-NH2 (staple 1-4, 4-11) [I-1508: Ac-PL3-Asp-Npg-B5-Asp-Asp-Ala-MePpzAsn-Phe-Leu-PyrS2-3Thi-BztA-Gln-NH2] registered an IC50 of 87 nM.

As to Ac-[αAllylPro]DK(Me3AdamantC)[B5(4)]DDAAFL[PyrS2][3Thi][Bta]Q-NH2 (staple 1-4, 4-11) [I-1471], the IC50 came to 34 nM.

On to Ac-[αAllylPro]DS[B5(4)]DDAAFL[PyrS2″][3Thi][Bta][hSer]-NH2 (staple 1-4, 4-11) [I-1514: Ac-PL3-Asp-Ser-B5-Asp-Asp-Ala-Ala-Phe-Leu-PyrS2-3Thi-BztA-Hse-NH2], for which the IC50 stood at 27 nM.

In turn, Ac-[αAllylPro]D[tBuAla][B5(27)]DDAAFL[PyrS2][3Thi][Bta]V-NH2 (staple 1-4, 4-11) [I-1495] showed an IC50 of 24 nM.

Take Ac-[αAllylPro]DS[B5(5)]DDAAFL[PyrS2″][3Thi][Bta]Q-NH2 (staple 1-4, 4-11) [I-1513: Ac-PL3-Asp-Ser-B5-Asp-Asp-Ala-Ala-Phe-Leu-PyrS2-3Thi-BztA-Gln-NH2]: the IC50 was found to be 21 nM.

Ac-[αAllylPro]D[tBuAla][B5(27)]DDA[Nva(5-morpholino)]FL[PyrS2][3Thi][Bta]Q-NH2 (staple 1-4, 4-11) [I-1501] had an IC50 of 46 nM.

Ac-[αAllylPro]D[tBuAla][B5(3)]DD[Phe(4-(3-Py))]AFL[PyrS2″]F[Bta]Q-NH2 (staple 1-4, 4-11) [I-1489] returned an IC50 of 17 nM.

Regarding Ac-[αAllylPro]D[tBuAla][B5(27)]DDA[F2PipNva]FL[PyrS2][3Thi][Bta]Q-NH2 (staple 1-4, 4-11) [I-1502], the IC50 was found to be 34 nM.

As to Ac-[αAllylPro]D[tBuAla][B5(27)]DDA[MorphAsn]FL[PyrS2][3Thi][Bta]Q-NH2 (staple 1-4, 4-11) [I-1507: Ac-PL3-Asp-Npg-B5-Asp-Asp-Ala-MorphAsn-Phe-Leu-PyrS2-3Thi-BztA-Gln-NH2], the IC50 was 30 nM.

Regarding Ac-[αAllylPro]D[tBuAla][B5(3)]DDAAF[F2PipNva][PyrS2″][3Thi][Bta]Q-NH2 (staple 1-4, 4-11) [I-1486], the IC50 amounted to 5 nM.

Regarding Ac-[αAllylPro]D[tBuAla][B5(3)]DDAAF[MorphAsn][PyrS2″][3Thi][Bta]Q-NH2 (staple 1-4, 4-11) [I-1487], the IC50 turned out to be 7 nM.

On to Ac-[αAllylPro]D[tBuAla][B5(27)]DDA[F2PipAbu]FL[PyrS2][3Thi][Bta]Q-NH2 (staple 1-4, 4-11) [I-1505: Ac-PL3-Asp-Npg-B5-Asp-Asp-Ala-F2PipAbu-Phe-Leu-PyrS2-3Thi-BztA-Gln-NH2], for which the half-inhibitory concentration (IC50) worked out at 39 nM.

Turning to Ac-[αAllylPro]D[tBuAla][B5(3)]DD[Nva(5-morpholino)]AFL[PyrS2″][3Thi][Bta]Q-NH2 (staple 1-4, 4-11) [I-1481], the half-inhibitory concentration (IC50) is 7 nM.

As for Ac-[αAllylPro]D[tBuAla][B5(27)]DDAAFL[PyrS2][3Thi][Bta]F-NH2 (staple 1-4, 4-11) [I-1496], the half-inhibitory concentration (IC50) came to 51 nM.

Ac-[αAllylPro]D[tBuAla][B5(27)]DDA[MorphAbu]FL[PyrS2][3Thi][Bta]Q-NH2 (staple 1-4, 4-11) [I-1504]: the IC50 was 46 nM.

Ac-[αAllylPro]D[tBuAla][B5(4)]DDA[MePpzNva]FL[PyrS2][3Thi][Bta]Q-NH2 (staple 1-4, 4-11) [I-1503] registered an IC50 of 38 nM.

Turning to Ac-[αAllylPro]D[tBuAla][B5(4)]DDAK([PEG2′-Me3AdamantC])FL[PyrS2″][3Thi][Bta]Q-NH2 (staple 1-4, 4-11) [I-1476], the IC50 came to 16 nM.

As to Ac-[αAllylPro]D[tBuAla][B5(3)]DDAAFL[PyrS2″][3Thi][Bta]N-NH2 (staple 1-4, 4-11) [I-1492], the IC50 stood at 5 nM.

For Ac-[αAllylPro]D[tBuAla][B5(5)]DDAAFL[PyrS2″][3Thi][Bta]QK(Me3AdamantC)-NH2 (staple 1-4, 4-11) [I-1479], the IC50 came out at 173 nM.

With Ac-[αAllylPro]D[tBuAla][B5(4)]DDA[MePpzAbu]FL[PyrS2][3Thi][Bta]Q-NH2 (staple 1-4, 4-11) [I-1506: Ac-PL3-Asp-Npg-B5-Asp-Asp-Ala-MePpzAbu-Phe-Leu-PyrS2-3Thi-BztA-Gln-NH2], the IC50 is 89 nM.

Molecule Ac-[αAllylPro]DK([PEG2′-Lithocholoyl])[B5(4)]DDAAFL[PyrS2][3Thi][Bta]Q-NH2 (staple 1-4, 4-11) [I-1470] registered an IC50 of 57 nM.

The molecule Ac-[αAllylPro]D[tBuAla][B5(3)]DDAAFL[PyrS2″][3Thi][Bta]QK([PEG2′-Me3AdamantC])-NH2 (staple 1-4, 4-11) [I-1480] displayed an IC50 of 37 nM.

With Ac-[αAllylPro]D[tBuAla][B5(4)]DDAK([PEG2′-Lithocholoyl])FL[PyrS2″][3Thi][Bta]Q-NH2 (staple 1-4, 4-11) [I-1474], the IC50 came out at 41 nM.

Ac-[αAllylPro]DY[B5(5)]DDAAFL[PyrS2″][3Thi][Bta][hSer]-NH2 (staple 1-4, 4-11) [I-1512: Ac-PL3-Asp-Tyr-B5-Asp-Asp-Ala-Ala-Phe-Leu-PyrS2-3Thi-BztA-Hse-NH2]: the IC50 turned out to be 12 nM.

Consider Ac-[αAllylPro]D[tBuAla][B5(3)]DD[MePpzAsn]AFL[PyrS2″][3Thi][Bta]Q-NH2 (staple 1-4, 4-11) [I-1484], for which the IC50 was found to be 30 nM.

Values taken from US20240116985A1, “STAPLED PEPTIDES AND METHODS THEREOF” (priority 2020, published 2024).
